# Assay results as given in US20250188154A1.
# Read-outs that look alike come from different tables or passages of the source.
# Key:
# [1] = molecular target: SARS-CoV-2 Spike-2P stabilized S ectodomain trimer (SARS-CoV-2) (UniProt P0DTC2)
# [2] = molecular target: SARS-CoV-2 spike on live virus (Isolate USA-WA1/2020) (SARS-CoV-2) (UniProt P0DTC2); assay: cell-based or functional assay
# [3] = molecular target: SARS-CoV-2 Spike-2P stabilized S ectodomain trimer (SARS-CoV-2) (UniProt P0DTC2); assay: ACE2 blocking, ELISA-based assay (Genscript)
# [4] = molecular target: SARS-CoV-2 2AA MA virus spike (SARS-CoV-2) (UniProt P0DTC2); assay: cell-based or functional assay
# [5] = molecular target: SARS-CoV-2 B.1.1.7 live virus spike (SARS-CoV-2) (UniProt P0DTC2); assay: cell-based or functional assay
# [6] = molecular target: SARS-CoV-2 B.1.351 live virus spike (SARS-CoV-2) (UniProt P0DTC2); assay: cell-based or functional assay
Substance,IC50 [1],IC80 [1],Bioqual PRNT IC50 [2],Bioqual PRNT IC90 [2],Duke RBL PRNT IC50 [2],Duke RBL PRNT IC90 [2],SARS-CoV-2 neutralization IC50 [2],SARS-CoV-2 neutralization IC80 [2],SARS-CoV-2 neutralization IC90 [2],SARS-CoV-2 neutralization Minimal Effective conc. [2],IC50 [3],live virus neutralization IC50 [4],live virus neutralization IC50 [5],live virus neutralization IC50 [6]
DH1042 (antibody),< 0.2 µg/mL,0.371 µg/mL,0.156 µg/mL,0.625 µg/mL,0.073 µg/mL,0.625 µg/mL,0.071 µg/mL,0.269 µg/mL,0.578 µg/mL,0.28 µg/mL,< 0.2 µg/mL,–,–,–
DH1047 (antibody),0.078 µg/mL,0.567 µg/mL,–,–,–,–,0.124 µg/mL,0.666 µg/mL,1.77 µg/mL,1.1 µg/mL,–,0.397 µg/mL,0.081 µg/mL,0.111 µg/mL
